Four variants from IntAct's records for PubMed 24997597 can be followed below.

The labels stand for the following.
B1: Serine/threonine-protein kinase PLK4 (Homo sapiens), O00444 (parent)
chain: MATCIGEKIEDFKVGNLLGKGSFAGVYRAESIHTGLEVAIKMIDKKAMYKAGMVQRVQNEVKIHCQLKHPSILELYNYFEDSNYVYLVLEMCHNGEMNRYLKNRVKPFSENEARHFMHQIITGMLYLHSHGILHRDLTLSNLLLTRNMNIKIADFGLATQLKMPHEKHYTLCGTPNYISPEIATRSAHGLESDVWSLGCMFYTLLIGRPPFDTDTVKNTLNKVVLADYEMPSFLSIEAKDLIHQLLRRNPADRLSLSSVLDHPFMSRNSSTKSKDLGTVEDSIDSGHATISTAITASSSTSISGSLFDKRRLLIGQPLPNKMTVFPKNKSSTDFSSSGDGNSFYTQWGNQETSNSGRGRVIQDAEERPHSRYLRRAYSSDRSGTSNSQSQAKTYTMERCHSAEMLSVSKRSGGGENEERYSPTDNNANIFNFFKEKTSSSSGSFERPDNNQALSNHLCPGKTPFPFADPTPQTETVQQWFGNLQINAHLRKTTEYDSISPNRDFQGHPDLQKDTSKNAWTDTKVKKNSDASDNAHSVKQQNTMKYMTALHSKPEIIQQECVFGSDPLSEQSKTRGMEPPWGYQNRTLRSITSPLVAHRLKPIRQKTKKAVVSILDSEEVCVELVKEYASQEYVKEVLQISSDGNTITIYYPNGGRGFPLADRPPSPTDNISRYSFDNLPEKYWRKYQYASRFVQLVRSKSPKITYFTRYAKCILMENSPGADFEVWFYDGVKIHKTEDFIQVIEKTGKSYTLKSESEVNSLKEEIKMYMDHANEGHRICLALESIISEEERKTRSAPFFPIIIGRKPGSTSSPKALSPPPSVDSNYPTRERASFNRMVMHSAASPTQAPILNPSMVTNEGLGLTTTASGTDISSNSLKDCLPKSAQLLKSVFVKNVGWATQLTSGAVWVQFNDGSQLVVQAGVSSISYTSPNGQTTRYGENEKLPDYIKQKLQCLSSILLMFSNPTPNFH
B2: Centrosomal protein of 152 kDa (Homo sapiens), O94986-3 (parent)
chain: MSLDFGSVALPVQNEDEEYDEEDYEREKELQQLLTDLPHDMLDDDLSSPELQYSDCSEDGTDGQPHHPEQLEMSWNEQMLPKSQSVNGYNEIQSLYAGEKCGNVWEENRSKTEDRHPVYHPEEGGDEGGSGYSPPSKCEQTDLYHLPENFRPYTNGQKQEFNNQATNVIKFSDPQWNHFQGPSCQGLEPYNKVTYKPYQSSAQNNGSPAQEITGSDTFEGLQQQFLGANENSAENMQIIQLQVLNKAKERQLENLIEKLNESERQIRYLNHQLVIIKDEKDGLTLSLRESQKLFQNGKEREIQLEAQIKALETQIQALKVNEEQMIKKSRTTEMALESLKQQLVDLHHSESLQRAREQHESIVMGLTKKYEEQVLSLQKNLDATVTALKEQEDICSRLKDHVKQLERNQEAIKLEKTEIINKLTRSLEESQKQCAHLLQSGSVQEVAQLQFQLQQAQKAHAMSANMNKALQEELTELKDEISLYESAAKLGIHPSDSEGELNIELTESYVDLGIKKVNWKKSKVTSIVQEEDPNEELSKDEFILKLKAEVQRLLGSNSMKRHLVSQLQNDLKDCHKKIEDLHQVKKDEKSIEVETKTDTSEKPKNQLWPESSTSDVVRDDILLLKNEIQVLQQQNQELKETEGKLRNTNQDLCNQMRQMVQDFDHDKQEAVDRCERTYQQHHEAMKTQIRESLLAKHALEKQQLFEAYERTHLQLRSELDKLNKEVTAVQECYLEVCREKDNLELTLRKTTEKEQQTQEKIKEKLIQQLEKEWQSKLDQTIKAMKKKTLDCGSQTDQVTTSDVISKKEMAIMIEEQKCTIQQNLEQEKDIAIKGAMKKLEIELELKHCENITKQVEIAVQNAHQRWLGELPELAEYQALVKAEQKKWEEQHEVSVNKRISFAVSEAKEKWKSELENMRKNILPGKELEEKIHSLQKELELKNEEVPVVIRAELAKARSEWNKEKQEEIHRIQEQNEQDYRQFLDDHRNKINEVLAAAKEDFMKQKTELLLQKETELQTCLDQSRREWTMQEAKRIQLEIYQYEEDILTVLGVLLSDTQKEHISDSEDKQLLEIMSTCSSKWMSVQYFEKLKGCIQKAFQDTLPLLVENADPEWKKRNMAELSKDSASQGTGQGDPGPAAGHHAQPLALQATEAEAEENNKVVEELIEENNDMKNKLEELQTLCKTPPRSLSAGAIENACLPCSGGALEELRGQYIKAVKKIKCDMLRYIQESKERAAEMVKAEVLRERQETARKMRKYYLICLQQILQDDGKEGAEKKIMNAASKLATMAKLLETPISSKSQSKTTQSALPLTSEMLIAVKKSKRNDVNQKIPCCIESKSNSVNTITRTLCEQAPKRRAACNLQRLLENSEHQSIKHVGSKETHLEFQFGDGSCKHLNSLPRNVSPEFVPCEGEGGFGLHKKKDLLSDNGSESLPHSAAYPFLGTLGNKPSPRCTPGPSESGCMHITFRDSNERLGLKVYKCNPLMESENAASEKSQGLDVQEPPVKDGGDLSDCLGWPSSSATLSFDSREASFVHGRPQGTLEIPSESVKSKQFSPSGYLSDTEESNMICQTMKCQRYQTPYLSEETTYLEPGKISVNCGHPSRHKADRLKSDFKKLSSTLPSSVCQQPSRKLIVPLSSQQDSGFDSPFVNLD
partner: B1 chain

The variants in one test derive from B1. The following applies: with CEP152, O94986-3.
On to K711A, for which the “effect of a mutation on the interaction” value is recorded as “decreasing interaction strength”.

Consider K685A, for which the “effect of a mutation on the interaction” value is recorded as “disrupting interaction strength”.

A further test covers variants of B2. The following applies: with plk4_human PLK4, O00444.
E21K: the “effect of a mutation on the interaction” value is “decreasing interaction strength”.

For V8A, the “effect of a mutation on the interaction” value is “decreasing interaction strength”.
